B1: Pistol ribozyme (parent)
chain: GGGUCGUUGUUCCAUAAUCGCGUGGAUAUGGCACGCAAGUUUCUACCGGGCACCGUAAAUGUCCGACUGGAGCCGUUCGGGCGGCUAUAAACAGACCUCAGGCCCGAAGCGUGGCGGCACCUGCCGCCGGUGGUAAAAAAGAUCGGAAGAGCACACGUCU

Variants of: B1
Assay: aptazyme ON/OFF ratio, guanine; higher = stronger switching; co-transcriptional cleavage with and without guanine

Point of comparison: U7G G9A U10C U11A C12A, “aptazyme ON/OFF ratio” value 1.1. Against it:
- U7C U11C C12U C13A — higher, 1.39
- U7C U11C C12U C13G — higher, 1.22
- U7G G9C C12U — higher, 1.79
- U7G G9C C12G — higher, 1.91
- U7G G9C C12A — higher, 1.99
- U7G G9A U10A C12A C13G — higher, 1.14
- U7G G9A U10A C12A C13U — higher, 1.28
- U7G G9A U10A C12A C13A — lower, 1.06
- U7G G9A U10C C12G C13G — higher, 1.19
- U7G G9A U10C C12G C13A — lower, 1.09
- U7G G9A U10C C12G C13U — higher, 1.27
- U7G G9A U10C C12A C13G — higher, 1.13
- U7G G9A U10C C12A C13A — higher, 1.14
- U7G G9A U10C C12A C13U — higher, 1.15
- U7G G9C C12A C13U — higher, 1.34
- U7G G9C C12A C13A — higher, 1.42
- U7G G9C C12A C13G — higher, 1.33
- U7G G9A U10A C12U C13G — higher, 1.24
- U7G G9A U10A C12U C13A — higher, 1.14
- U7G G9A U10A C12U C13U — higher, 1.22
- U7G G9A U10A C12G C13G — higher, 1.12
- U7G G9A U10A C12G C13A — lower, 1.09
- U7G G9A U10A C12G C13U — higher, 1.25
- U7G G9A U10C U11C C12A C13G — higher, 1.19
- U7G G9A U10C U11C C12A C13U — higher, 1.12
- U7G G9A U10C U11C C12A C13A — higher, 1.11
- U7G G9A U10C U11C C12U — lower, 1.07
- U7G G9A U10C U11C C12A — higher, 1.26
- U7G G9A U10C U11C C12G — higher, 1.17
- U7G G9C C13G — higher, 1.14
- U7G G9C C13U — higher, 1.45
- U7G G9C C13A — higher, 1.29
- U7G G9A U10C U11G C12U C13A — higher, 1.11
- U7G G9A U10C U11G C12U C13U — higher, 1.14
- U7G G9A U10C U11G C12U C13G — higher, 1.11
- U7G G9A U11A C13G — the same, 1.1
- U7G G9A U11A C13A — higher, 1.14
- U7G G9A U11A C13U — higher, 1.2
- U7G G9A U10G C12G C13G — higher, 1.12
- U7G G9A U10G C12G C13A — the same, 1.1
- U7G G9A U10G C12G C13U — lower, 1.07
- U7G C12A C13U — higher, 1.21
- U7G C12A C13A — higher, 1.22
- U7G C12A C13G — higher, 1.11
- U7G G9A U10G U11C C12G C13G — lower, 1.08
- U7G G9A U10G U11C C12G C13U — the same, 1.1
- U7G G9A U10G U11C C12G C13A — lower, 1.08
- U7G G9A U10G U11A C13U — lower, 1.07
- U7G G9A U10G U11A C13G — lower, 1.06
- U7G G9A U10G U11A C13A — lower, 1.05
- U7G G9A U10G C12A C13G — higher, 1.15
- U7G G9A U10G C12A C13A — lower, 1.08
- U7G G9A U10G C12A C13U — lower, 1.08
- U7G G9A U10G U11C C12A — higher, 1.12
- U7G G9A U10G U11C C12G — the same, 1.1
- U7G G9A U10G U11C C12U — higher, 1.11
- U7C U11G C12U C13A — higher, 1.13
- U7C U11G C12U C13G — lower, 1.06
- U7C U11G C12U C13U — higher, 1.2
- U7G G9A U10A C12A — higher, 1.2
- U7G G9A U10A C12G — higher, 1.18
- U7G G9A U10A C12U — higher, 1.31
- U7G G9A U10A U11G C12A C13G — lower, 1.08
- U7G G9A U10A U11G C12A C13A — lower, 1.05
- U7G G9A U10A U11G C12A C13U — higher, 1.12
- U7G G9A U10G U11A C12G C13A — higher, 1.12
- U7G G9A U10G U11A C12G C13G — higher, 1.11
- U7G G9A U10G U11A C12G C13U — lower, 1.05
- U7G G9A U10A C13U — higher, 1.28
- U7G G9A U10A C13G — lower, 1.06
- U7G G9A U10A C13A — lower, 1.07
- U7G G9A U11A C12G C13U — higher, 1.12
- U7G G9A U11A C12G C13A — lower, 1.08
- U7G G9A U11A C12G C13G — higher, 1.13
- U7G G9A U10A U11A C12U C13G — higher, 1.19
- U7G G9A U10A U11A C12U C13U — higher, 1.17
- U7G G9A U10A U11A C12U C13A — higher, 1.12
- U7G G9A U10C U11A C12U — higher, 1.18
- U7G G9A U10C U11A C12G — higher, 1.15
- U7G G9A U10C U11G C13A — lower, 1.09
- U7G G9A U10C U11G C13G — higher, 1.17
- U7G G9A U10C U11G C13U — higher, 1.14

From the RNAGym collection of RNA variant scans (doi:10.1021/acssynbio.7b00057)
